Laboratory results taken from the supplement of paper PMC6757056.
± gives the standard deviation of the averaged measurements.

B1: library; a variant is named by its letters at N, in order (parent)
chain: GCUGUCACCGGUGCUUGGUACGUUAUAUUCAGCCGGUCUGAUGAGUCUNNNNNNAGACGAAACAGC

Tests used:
[1] = variants of: B1; assay: FACS-Seq fitted mean relative fluorescence mCherry/BFP without ligand (log10 relative fluorescence); HEK293T overexpressing SLC46A1; higher = higher reporter protein expression; conditions: without (6R,S)-folinic acid; ligand present: no
Experimental: (§1)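 Hammerhead (sTRSV) ribozyme switch libraries with a ligand aptamer grafted on stem I and a randomized N4-6 loop II, cloned into the 3' UTR of mCherry and transiently transfected into HEK293T cells; RNA-Seq 72 h post transfection with ligand added 1 h before transfection; RNA read count / plasmid DNA read count normalized to the non-cleaving sTRSVctl (x100), log10; sequences with >100 DNA reads. FACS-Seq: lentiviral library sorted into 6 bins after 48 h ligand, log-normal fit mean of mCherry/BFP scaled to controls. Printed sequences are partial switch sequences.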

[2] = variants of: B1; assay: normalized RNA/DNA level without ligand (relative to sTRSVctl = 100) (log10 (% of sTRSVctl)); HEK293T overexpressing SLC46A1; higher = less ribozyme self-cleavage, higher mRNA level; conditions: without (6R,S)-folinic acid; ligand present: no
Experimental: as §1

[3] = variants of: B1; assay: FACS-Seq fitted mean relative fluorescence mCherry/BFP with ligand (log10 relative fluorescence); HEK293T overexpressing SLC46A1; ligand concentration (+) FACS-Seq: 6 mM; higher = higher reporter protein expression; conditions: with (6R,S)-folinic acid; ligand present: yes
Experimental: as §1

[4] = variants of: B1; assay: normalized RNA/DNA level with ligand (relative to sTRSVctl = 100) (log10 (% of sTRSVctl)); HEK293T overexpressing SLC46A1; ligand concentration (+) RNA-Seq: 6 mM; higher = less ribozyme self-cleavage, higher mRNA level; conditions: with (6R,S)-folinic acid; ligand present: yes
Experimental: as §1

GCUGUCACCGGUGCUUGGUACGUUAUAUUCAGCCGGUCUGAUGAGUCUAAAAAGAGACGAAACAGC [AAAAAG]
FACS-Seq fitted mean (log10) [1]: 0.431 ± 0.18 | normalized RNA/DNA level without ligand (log10) [2]: 1.914 ± 0.0037 | FACS-Seq fitted mean (log10) [3]: 0.605 ± 0.12 | normalized RNA/DNA level with ligand (log10) [4]: 2 ± 0.045

GCUGUCACCGGUGCUUGGUACGUUAUAUUCAGCCGGUCUGAUGAGUCUCAAACUAGACGAAACAGC [CAAACU]
FACS-Seq fitted mean (log10) [1]: 0.433 ± 0.064 | normalized RNA/DNA level without ligand (log10) [2]: 2.01 ± 0.027 | FACS-Seq fitted mean (log10) [3]: 0.667 ± 0.16 | normalized RNA/DNA level with ligand (log10) [4]: 2.01 ± 0.029

GCUGUCACCGGUGCUUGGUACGUUAUAUUCAGCCGGUCUGAUGAGUCUCAAACCAGACGAAACAGC [CAAACC]
FACS-Seq fitted mean (log10) [1]: 0.546 ± 0.013 | normalized RNA/DNA level without ligand (log10) [2]: 2.024 ± 0.0088 | FACS-Seq fitted mean (log10) [3]: 0.377 ± 0.2 | normalized RNA/DNA level with ligand (log10) [4]: 2.02 ± 0.038

GCUGUCACCGGUGCUUGGUACGUUAUAUUCAGCCGGUCUGAUGAGUCUCAAAACAGACGAAACAGC [CAAAAC]
FACS-Seq fitted mean (log10) [1]: 0.474 ± 0.076 | normalized RNA/DNA level without ligand (log10) [2]: 1.9999 ± 0.0015 | FACS-Seq fitted mean (log10) [3]: 0.589 ± 0.49 | normalized RNA/DNA level with ligand (log10) [4]: 1.99 ± 0.055

GCUGUCACCGGUGCUUGGUACGUUAUAUUCAGCCGGUCUGAUGAGUCUCAAAAUAGACGAAACAGC [CAAAAU]
FACS-Seq fitted mean (log10) [1]: -0.131 ± 0.018 | normalized RNA/DNA level without ligand (log10) [2]: 1.955 ± 0.0057 | FACS-Seq fitted mean (log10) [3]: -0.505 ± 0.1 | normalized RNA/DNA level with ligand (log10) [4]: 1.98 ± 0.032

GCUGUCACCGGUGCUUGGUACGUUAUAUUCAGCCGGUCUGAUGAGUCUUAAACGAGACGAAACAGC [UAAACG]
FACS-Seq fitted mean (log10) [1]: 0.324 ± 0.13 | normalized RNA/DNA level without ligand (log10) [2]: 1.799 ± 0.016 | FACS-Seq fitted mean (log10) [3]: 0.717 ± 0.1 | normalized RNA/DNA level with ligand (log10) [4]: 1.95 ± 0.032

GCUGUCACCGGUGCUUGGUACGUUAUAUUCAGCCGGUCUGAUGAGUCUUAAAACAGACGAAACAGC [UAAAAC]
FACS-Seq fitted mean (log10) [1]: 0.386 ± 0.024 | normalized RNA/DNA level without ligand (log10) [2]: 1.973 ± 0.0055 | FACS-Seq fitted mean (log10) [3]: 0.499 ± 0.15 | normalized RNA/DNA level with ligand (log10) [4]: 1.98 ± 0.028

GCUGUCACCGGUGCUUGGUACGUUAUAUUCAGCCGGUCUGAUGAGUCUUAAAAAAGACGAAACAGC [UAAAAA]
FACS-Seq fitted mean (log10) [1]: 0.254 ± 0.059 | normalized RNA/DNA level without ligand (log10) [2]: 1.9232 ± 0.0015 | FACS-Seq fitted mean (log10) [3]: 0.164 ± 0.11 | normalized RNA/DNA level with ligand (log10) [4]: 1.98 ± 0.024

GCUGUCACCGGUGCUUGGUACGUUAUAUUCAGCCGGUCUGAUGAGUCUUAAAAUAGACGAAACAGC [UAAAAU]
FACS-Seq fitted mean (log10) [1]: 0.0871 ± 0.034 | normalized RNA/DNA level without ligand (log10) [2]: 1.941 ± 0.016 | FACS-Seq fitted mean (log10) [3]: 0.075 ± 0.078 | normalized RNA/DNA level with ligand (log10) [4]: 1.97 ± 0.036

GCUGUCACCGGUGCUUGGUACGUUAUAUUCAGCCGGUCUGAUGAGUCUUAAAAGAGACGAAACAGC [UAAAAG]
FACS-Seq fitted mean (log10) [1]: 0.335 ± 0.03 | normalized RNA/DNA level without ligand (log10) [2]: 1.7583 ± 0.00058 | FACS-Seq fitted mean (log10) [3]: 0.493 ± 0.023 | normalized RNA/DNA level with ligand (log10) [4]: 1.96 ± 0.049

GCUGUCACCGGUGCUUGGUACGUUAUAUUCAGCCGGUCUGAUGAGUCUGAAAGAAGACGAAACAGC [GAAAGA]
FACS-Seq fitted mean (log10) [1]: 0.353 ± 0.015 | normalized RNA/DNA level without ligand (log10) [2]: 2.011 ± 0.011 | FACS-Seq fitted mean (log10) [3]: 0.607 ± 0.25 | normalized RNA/DNA level with ligand (log10) [4]: 2.04 ± 0.024
